Laboratory results: patent US20150203577A1 (Chugai, published 2015)
Residue numbers refer to the chain shown, from its start.

T1: mouse FcγRII extracellular domain, C-terminally His-tagged (mouse, UniProt P08101 30-210)
T1 construct: the whole entry is named; also called mFcγRII; mFcgRII
T1 sequence: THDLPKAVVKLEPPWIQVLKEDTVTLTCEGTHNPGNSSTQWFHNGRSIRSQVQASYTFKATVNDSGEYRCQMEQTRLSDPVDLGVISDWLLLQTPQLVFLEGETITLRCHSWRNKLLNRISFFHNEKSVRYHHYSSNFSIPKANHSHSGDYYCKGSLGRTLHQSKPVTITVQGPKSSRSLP

T2: mouse FcγRIII extracellular domain, C-terminally His-tagged (mouse, UniProt P08508 31-215)
T2 construct: the whole entry is named; also called mFcγRIII; mFcgRIII
T2 chain: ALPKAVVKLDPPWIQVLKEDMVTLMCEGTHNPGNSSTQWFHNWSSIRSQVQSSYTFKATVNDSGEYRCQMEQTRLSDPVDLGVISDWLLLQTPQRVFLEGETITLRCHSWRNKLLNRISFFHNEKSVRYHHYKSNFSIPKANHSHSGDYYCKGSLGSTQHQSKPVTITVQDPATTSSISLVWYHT

B1: H237-MB397/MRAL-k0 (antibody, mouse IgG1, kappa)
heavy: QVQLQESGPGLVKPSETLSLTCAVSGHSISHDHAWSWVRQPPGEGLEWIGFISYSGITNYNPSLQGRVTISRDNSKNTLYLQMNSLRAEDTAVYYCARSLARTTAMDYWGEGTLVTVSSAKTTPPSVYPLAPGSAAQTNSMVTLGCLVKGYFPEPVTVTWNSGSLSSGVHTFPAVLQSDLYTLSSSVTVPSSTWPSETVTCNVAHPASSTKVDKKIVPRDCGCKPCICETYEVEDVFIFPPKPKDVLTITLTPKVTCVVVDISKDDPEVQFSWFVDDVEVHTAQTQPREEQFNSTFRSVSELPIMHQDWLNGKEFKCRVNSAAFPAPIEKTISKTKGRPKAPQVYTIPPPKEQMAKDKVSLTCMITDFFPEDITVEWQWNGQPAENYKNTQPIMDTDGSYFVYSKLNVQKSNWEAGNTFTCSVLHEGLHNHHTEKSLSHSPGK
light: not shown
notes: Template of the MB397 variants; copies: 2 + 2
B2: H237-MB450/MRAL-k0 (antibody, mouse IgG1, kappa)
heavy: B1 heavy with N320M
light: not shown
notes: copies: 2 + 2
B3: H237-MB454/MRAL-k0 (antibody, mouse IgG1, kappa)
heavy: B1 heavy with P327F
light: not shown
notes: copies: 2 + 2
B4: H237-MB446/MRAL-k0 (antibody, mouse IgG1, kappa)
heavy: B1 heavy with S294L
light: not shown
notes: copies: 2 + 2
B5: H237-MB453/MRAL-k0 (antibody, mouse IgG1, kappa)
heavy: B1 heavy with P327D
light: not shown
notes: copies: 2 + 2
B6: H237-MB442/MRAL-k0 (antibody, mouse IgG1, kappa)
heavy: B1 heavy with K330R
light: not shown
notes: copies: 2 + 2
B7: H237-MB451/MRAL-k0 (antibody, mouse IgG1, kappa)
heavy: B1 heavy with A326G
light: not shown
notes: copies: 2 + 2
B8: H237-MB457/MRAL-k0 (antibody, mouse IgG1, kappa)
heavy: B1 heavy with E329Y
light: not shown
notes: copies: 2 + 2
B9: H237-MB441/MRAL-k0 (antibody, mouse IgG1, kappa)
heavy: B1 heavy with A326K
light: not shown
notes: copies: 2 + 2
B10: H237-MB448/MRAL-k0 (antibody, mouse IgG1, kappa)
heavy: B1 heavy with N320D
light: not shown
notes: copies: 2 + 2
B11: H237-MB445/MRAL-k0 (antibody, mouse IgG1, kappa)
heavy: B1 heavy with F292T
light: not shown
notes: copies: 2 + 2
B12: H237-MB459/MRAL-k0 (antibody, mouse IgG1, kappa)
heavy: B1 heavy with T331N
light: not shown
notes: copies: 2 + 2
B13: H237-MB452/MRAL-k0 (antibody, mouse IgG1, kappa)
heavy: B1 heavy with A326Q
light: not shown
notes: copies: 2 + 2
B14: H237-MB443/MRAL-k0 (antibody, mouse IgG1, kappa)
heavy: B1 heavy with F292E
light: not shown
notes: copies: 2 + 2
B15: H237-MB440/MRAL-k0 (antibody, mouse IgG1, kappa)
heavy: B1 heavy with P267L
light: not shown
notes: copies: 2 + 2
B16: H237-MB449/MRAL-k0 (antibody, mouse IgG1, kappa)
heavy: B1 heavy with N320L
light: not shown
notes: copies: 2 + 2
B17: H237-MB456/MRAL-k0 (antibody, mouse IgG1, kappa)
heavy: B1 heavy with E329N
light: not shown
notes: copies: 2 + 2
B18: H237-MB444/MRAL-k0 (antibody, mouse IgG1, kappa)
heavy: B1 heavy with F292N
light: not shown
notes: copies: 2 + 2
B19: H237-MB447/MRAL-k0 (antibody, mouse IgG1, kappa)
heavy: B1 heavy with S294M
light: not shown
notes: copies: 2 + 2
B20: H237-MB439/MRAL-k0 (antibody, mouse IgG1, kappa)
heavy: B1 heavy with S263E
light: not shown
notes: copies: 2 + 2
B21: H237-MB455/MRAL-k0 (antibody)
heavy: B1 heavy with P327Y
light: not shown
notes: copies: 2 + 2
B22: H237-MB458/MRAL-k0 (antibody, mouse IgG1, kappa)
heavy: B1 heavy with E329V
light: not shown
notes: copies: 2 + 2

What follows are binders tested against T1, mouse FcγRII extracellular domain, … (assay: SPR Biacore T200, KD ratio).
Source text: (§1) The antibody H chain variable region used was the variable region H237 (SEQ ID NO: 1) of the H chain VH3-IgG1 of the anti-IL-6 receptor antibody Fv4-IgG1 described in WO2009/125825. The antibody L chain commonly used was the L chain MRAL-k0 (SEQ ID NO: 2) of the anti-IL-6 receptor antibody tocilizumab. […] The resulting variant groups were designated as MB397 variants and MB390 variants, respectively. These variants were expressed and purified by the method of Reference Example 1 and evaluated for their binding to mFcγRII and mFcγRIII by the method of Reference Example 2 using Biacore T200.
(§2) Each altered antibody was analyzed for its interaction with each Fcγ receptor prepared above using Biacore T100 (GE Healthcare Japan Corp.), Biacore T200 (GE Healthcare Japan Corp.), Biacore A100, or Biacore 4000. The running buffer used was HBS-EP+ (GE Healthcare Japan Corp.). The assay temperature was set to 25° C. The sensor chips used were chips prepared by immobilizing Protein L (ACTIGEN or BioVision) onto Series S Sensor Chip CM5 (GE Healthcare Japan Corp.) or Series S Sensor Chip CM4 (GE Healthcare Japan Corp.) by the amine coupling method.
(§3) In order to calculate the KD value of each altered antibody for FcγR, kinetic analysis was conducted according to the following method: first, the antibody of interest was captured onto any of these chips and allowed to interact with mFcγR diluted with a running buffer. For the obtained sensorgram, the assay results were globally fit into the 1:1 Langmuir binding model using Biacore Evaluation Software to calculate an association rate constant ka (L/mol/s) and a dissociation rate constant kd (1/s). From these values, the dissociation constant KD (mol/L) was calculated.

Row | relative mFcγRII-binding activity (MB397 = 1) | relative mFcγRII-binding activity (mIgG1 = 1) | Binder
1 | 1 fold | 555 fold | B1
2 | 0.68 fold | 377 fold | B2
3 | 0.53 fold | 295 fold | B3
4 | 2.45 fold | 1360 fold | B4
5 | 0.21 fold | 118 fold | B5
6 | 1.6 fold | 884 fold | B6
7 | 0.11 fold | 60.1 fold | B7
8 | 0.36 fold | 202 fold | B8
9 | 0.07 fold | 39.7 fold | B9
10 | 0.95 fold | 525 fold | B10
11 | 0.4 fold | 220 fold | B11
12 | 0.51 fold | 285 fold | B12
13 | 0.08 fold | 46.9 fold | B13
14 | 0.44 fold | 243 fold | B14
15 | 0.22 fold | 120 fold | B15
16 | 0.28 fold | 154 fold | B16
17 | 0.12 fold | 67.9 fold | B17
18 | 0.42 fold | 231 fold | B18
19 | 1.1 fold | 608 fold | B19
20 | 0.07 fold | 39.5 fold | B20
21 | 0.6 fold | 332 fold | B21
22 | 0.46 fold | 253 fold | B22

Biological target: T2, mouse FcγRIII extracellular domain, …
Experiment: SPR Biacore T200, KD ratio
Source text: as §1, §2, §3

Row | relative mFcγRIII-binding activity (MB397 = 1) | relative mFcγRIII-binding activity (mIgG1 = 1) | Binder
23 | 1 fold | 19.3 fold | B1
24 | 1.18 fold | 22.7 fold | B2
25 | 1.04 fold | 20 fold | B3
26 | 3.3 fold | 63.7 fold | B4
27 | 0.49 fold | 9.5 fold | B5
28 | 1.39 fold | 26.9 fold | B6
29 | 0.5 fold | 9.7 fold | B7
30 | 0.7 fold | 13.6 fold | B8
31 | 0.21 fold | 4.1 fold | B9
32 | 1.3 fold | 25.1 fold | B10
33 | 0.68 fold | 13.2 fold | B11
34 | 1.06 fold | 20.5 fold | B12
35 | 0.23 fold | 4.4 fold | B13
36 | 0.79 fold | 15.3 fold | B14
37 | 0.36 fold | 6.9 fold | B15
38 | 0.56 fold | 10.7 fold | B16
39 | 0.23 fold | 4.5 fold | B17
40 | 0.67 fold | 12.9 fold | B18
41 | 1.63 fold | 31.4 fold | B19
42 | 0.23 fold | 4.5 fold | B20
43 | 1.38 fold | 26.6 fold | B21
44 | 0.81 fold | 15.7 fold | B22
